Test results reported in the DeepSol protein solubility set.

Assay: soluble on expression in E. coli; label from the status in PepcDB or PDB records

Row | Sequence | soluble on expression in E. coli
1 | MEEDSIHLPTHLRLQPIYWSRDDVAQWLKWAENEFSLRPIESNKFEMNGKALLLLTKEDFRYRSPHSGDVLYELLQHILKQRKSRMLFSPFFPPGDSIHTKPEVLLHQNHDEDNCVQRTPRTPAESVHHNPPTIELLHRPRSPITTNHRPSPDPEQQRPQRSPLDNMSRRLSPVEKAQGPRLQQENNHQETYPLSVSPVENNHCLPSSPWQESTRVIQLMPSPIMHPLILNPRHSHSVDFKQSRHSEDGMNREGKPINLSHREDLAYLNHIMVSMSPPEEHAMPIGRIADCRLLWDYVYQLLSDSRYENFIRWEDKESKIFRIVDPNGLARLWGNHKNRTNMTYEKMSRALRHYYKLNIIRKEPGQRLLFRFMKTPDEIMSGRTDRLEHLESQVLDEQTYQEDEPTIASPVGWPRGNLPTGTAGGVMEAGELGVAVKEETRE | soluble
2 | GMSDLQSLQPKLLWQWFDQICAIPHPSYKEEQLAQFIINWAKTKGFFAERDEVGNVLIRKPATVGMENRKPVVLQAHLDMVPQANEGTNHNFDQDPILPYIDGDWVKAKGTTLGADNGIGMASALAVLESNDIAHPELEVLLTMTEERGMEGAIGLRPNWLRSEILINTDTEENGEIYIGCAGGENADLELPIEYQVNNFEHCYQVVLKGLRGGHSGVDIHTGRANAIKVLLRFLAELQQNQPHFDFTLANIRGGSIRNAIPRESVATLVFNGDITVLQSAVQKFADVIKAELALTEPNLIFTLEKVEKPQQVFSSQCTKNIIHCLNVLPNGVVRNSDVIENVVETSLSIGVLKTEDNFVRSTMLVRSLIESGKSYVASLLKSLASLAQGNINLSGDYPGWEPQSHSDILDLTKTIYAQVLGTDPEIKVIHAGLECGLLKKIYPTIDMVSIGPTIRNAHSPDEKVHIPAVETYWKVLTGILAHIPSR | soluble
3 | VDLEKFKFHARIDDDFEDSYIQLLLDAAINYVSKITGVPNDENAPPEYDLAIMILALHWYTNREVLSDRGTNQVPYGLGMLIANLRTN | not soluble
4 | MIMRWGEKRYHSLDYELKQMFKEKVYKIALNGGMTCPNRDGHVGTGGCIFCSSQGSGDFAGSARLSIAEQIRQGKADISSKRPVHSYIAYFQAFTNTYAPVETLRALYMEAIADPEVKILSIATRPDCLGADVLALLDEINQIKPVWVELGLQTIHPETSAYIRRGYELSVFEQAVKELRAIGITVIVHTILYLPGETKDDMLDTIHYLNHMDIQGIKLQLLHVLTHTDLAADYEKHPFYIPDMQDYIQFLGTCIAHLNPEIVIHRLTGDGPKDLLIAPLWTSNKRTVLNQLHSHLKEQDIWQGKEYYV | not soluble
5 | MGSDKIHHHHHHMIMLTVSDYLAQPVVSPDVSIRYGDHPDQFGDLYLPAQVHPAPVVMMIHGGCWQAAYPLTPLGECCAALRARGYAVWNLEYRRLGNGGGWPSTFLDVAAGADHLRVLAEHYPLDLNRVVVVGHSAGGHLALWLATRPKLPPTSPLYIPHPLPVHGVVALAAVADLRRGVTATACGTACLELIDNEESRCAEASPHARLPLDIPHYHLVGGDDPIVPASYVAAFVDAARQAGDLAHLTIVPKCGHFELTTPHSQAWQTVVQTIDKACSLNRS | not soluble
6 | SVNYYKVLGVPRNASSSDIKRAFHQLALQVHPDKNPGDKEAAEEKFKQVAEAYHILSDAKKRKDYDRSRWNRNKGEIRGDGHDKGETIRVNDSRDETDWEEKICSRRPRHTFQKVTEDEDLFSGDCLFSGPITGSRRASSPFFTVTPIMDTGFSTFVSHESRSYSDDPETFVPYISQGMGKFRLVTTCSKTVNGKRVVTKRVVENIRGPKKIENERLFRHNPSRGWKLMENPCS | soluble
7 | AVANATELVNKISENCFEKCLTSPYATRNDACIDQCLAKYMRSWNVISKAYISRIQNASASGEI | soluble
8 | MIKNLITQQEGKTLEFKRDLSSPKSLLKSIVAFANTAGGHLIIGVNDERQIIGVEHPLDEEERLCNLIADSISPRLIPSIELVTLNNKTLLVIEVFVSNTGPHWINSEGSTQGIYVRLGSTNRQADQELITELHRRSEGVNFDEMPMPQLSVDDVDITKAQELFSDIKSLNEKNLLTLKLITSHQGKLVPTKGAILLFGKERNTYFPDAWVQCGRFIGKDKSRIFDHVDIYDYLPDAVESIMMFLKKHALRGADFSAVQRKDIWSIPLVMLREAVINALVHTDYSQRGAPIRISFFDDRIEIENPGILLPGLTIEDMRQGISKIRNHVIARVFRELNLIEQWGSGVSRIYSEAIEQKLQEPEIIEIGMRIRFIIYLAQGIPIDSTFDKRDKQLESRLESRLESRLESKLAARVIQVLQNGEAGKIQIARSLGHQTVSGELHKQIKQLLKLEIIEMTIPDKPNSRLQKYRLTNKGIDLINIIQRELAAALEHHHHHH | not soluble
9 | MSLDFATEYVYPAFSELTGTDKIVAFGDHSHKCPIYVPQTPPCTAECPAGEDIRAINRFLNGTDPSDDPLKSAWETATDTNPFPAVMGRICPHPCQSKCNRGVHDESVAINAVEQVLGNYGIEHNLKLKGPGADTGKRVAIIGGGPAGLSAAYQLRRKGHAVTIYDANEKLGGMVLYGIMGYRVDRKVLEAEIGRIIELGVETKMGVTIGKDITLEQLEAEYDAVFIAVGAQKGRALPVPGFEGTPGATNAIDFLKSYEVLGDDIPVGKHVVVIGDGNVSMDVARLALRLGSQATIISGVPREEMACFENEFDDAKNEGTTMHFLTGTVEVLGGASGVTGLRCTKMVKKEKGEEGWNSPIPFLRYKSNGESFEIEADMVVAAIGQATDLSGLGSAASGPWLKVDRNFRIPGREKLFGGGDALKVDLITTAVGHGRKAAYAIDAFLKGEPMPEEGHHHHHH | soluble
10 | MGSDKIHHHHHHMGYSFVHPTGVTLYNPEKAFNGYTLMSIRELGAGLIDMNGNVVRLWKDLHGFPNKLLPGGYVIGSLGIRDPAYGYQDQTDLVQVDWEGNVVWKFNRLEYIEDPDNKPQWMVRQHHDYQRDGNPVGYYIPGMECRTDGGNTLILCHENLFNTKISEKRLLDDCFIEVDWEGNILWSWRASDHFEEMNFSDAAKNAMYRNPNMLENGGGMGDWLHINSMSYLGPNQWYDAGDERFHPENIIWDGREANISAIIDKKSGVIVWQMGPDFSATKELRRIGQIIGQHHVHMIPKGLPGAGNILIFDNGSWGGYGTPSNVSKDGIKADHADRSRVIELNPVTMEVVWQLTASELGYKPAGIFDYRFYSPLTSSAQRLPNGNTLITEGTGFRVFEVTADHEVVWEFWSPFTNAVAPTVYRTYRYPYSYVPHLAKPQETPIPRLDIKTFRVPGAAAGQLANQIKVAGTTGYGDKQELCVSFGEEL | not soluble
11 | GPGSMFTPSTRFLCSARPLLWFGRRGVFAAPHPEKAKTGGEDAFVVHTSGIGVADGVGGYASYGVDPGVYTRNVMKHTLRALQEDDNRGTIGALQALTYGYTEAQKLKQPGGCPVTLVTLLDGRFASVLNLGDCGTICLRSSKLFFATEPQQHSFNCPYQLPEDPPSVGDRTTLEVSEGDVFLCASDGLLDNVDMSDILRHLDAVNRDGCQRVAENLVACACRNGANKGFDSPFAKQARAVGYHYMGGKQDDVTVVVAQLTRGTVAPDDCPSLITELLDVHKT | not soluble
12 | GPLGSEVKKKKNKKKNKKVNGLPPEIAAVPELAKYWAQRYRLFSRFDDGIKLDREGWFSVTPEKIAEHIAGRVSQSFKCDVVVDAFCGVGGNTIQFALTGMRVIAIDIDPVKIALARNNAEVYGIADKIEFICGDFLLLASFLKADVVFLSPPWGGPDYATAETFDIRTMMSPDGFEIFRLSKKITNNIVYFLPRNADIDQVASLAGPGGQVEIEQNFLNNKLKTITAYFGDLIRRPASET | soluble
13 | MFEKQEVEQKKELKILEIIKEAIELGASDIHLTAGAPPAVRIDGYIKFLKDFPRLTPEDTQKLAYSVMSEKHRQKLEENGQVDFSFGVRGVGRFRANVFYQRGSVAAALRSLPAEIPEFKKLGLPDKVLELCHRKMGLILVTGPTGSGKSTTIASMIDYINQTKSYHIITIEDPIEYVFKHKKSIVNQREVGEDTKSFADALRAALREDPDVIFVGEMRDLETVETALRAAETGHLVFGTLHTNTAIDTIHRIVDIFPLNQQEQVRIVLSFILQGIISQRLLPKIGGGRVLAYELLIPNTAIRNLIRENKLQQVYSLMQSGQAETGMQTMNQTLYKLYKQGLITLEDAMEASPDPKELERMIRGGRHHHHHH | soluble
14 | MAQLMKRGFSTSAALAKAQLVKTPIQVHGVEGRYAAALYSAGHKQNKLDQISTDLNNVRSVYKDNKKFQEFVLDPTLKANKKKTAIEAISTKLGLTKETGNFLGLLAENGRLNKLESVVSSFESIMRAHRGELFVQVTSAEELSSSNQKALSDALSKIGKSGQKLTVTYAVKPSILGGLVVTIGDKYVDLSIASRVKKYKDALATAI | not soluble
